Series [1] can be described thus: Galactose binding: isothermal fluorescence titrations of conjugates. The conditions noted are these: Acrylodan conjugate; for S, selectivity = trueKd(galactose)/trueKd(glucose): S > 1, selective for glucose; for Kd: read-out: Galactose trueKd, monochromatic titration curves, room temperature.
Series [2] in a line: Thermostability: mid-point thermal denaturation temperature (Tm) from temperature-dependent fluorescence (Roche LightCycler). It counts as physicochemical. The note with it: Acrylodan conjugate; apo-protein. The source says: Protein (un)folding is monitored by binding of SYPRO to the unfolded state as a function of temperature. Fluorescence intensity increases upon binding of SYPRO by the unfolded state.
Panels A-C: ttGBP182C.2.0-Imm0; Panels D-F: ttGBP182C.2.0-Imm1 (see FIG. 13). (A) Solution (Tm=347.6K). (B) Immobilized on Nickel-nitriloacetic acid (Ni-NTA) beads (Tm=346.7K). (C) Reconstituted, desiccated Ni-NTA beads (Tm=347.6K). (D) Fluorescence response of ttGGBP5.2 Imm1 immobilized on NHS-functionalized agarose beads. Data was collected on a Roche LightCycler real-time PCS instrument, recording emission intensities at 488 nm and 510 nm as a function of temperature in a 384-well microtiter plate. […] Temperature melts of twelve different wells. Apo protein thermostability as reported by the denaturation mid-point temperature is 349 K, similar to the protein free in solution. […] (F) Representative Langmuir ligand-binding curve extracted from the three-dimensional data.
Temperatures were advanced in 1K steps. […] Under these experimental photobleaching was not observed.

The nature of series [3]: Glucose binding: isothermal fluorescence titrations, ratiometric (appKd) and monochromatic (trueKd) fits. The conditions noted are these: Acrylodan conjugate, room temperature. The source says:
2 For a single glucose-binding site, the fractional saturation is given by
[formula] where ^apoIλ2 and ^satIλ2 are the emission intensities of the monochromatic signal at wavelength λ2 of the ligand-free and ligand-bound protein, respectively.

Setting [4] is: read-out: Glucose appKd, dichromatic ratiometry.
[5] abbreviates: read-out: Glucose trueKd, monochromatic titration curves.

B1: ttGGBP182C.2.6: affinity-tuning mutant, 182C background, SEQ ID NO: 93 (protein)
chain: MKQLNIGVAIYKFDDTFMTGVRNAMTAEAQGKAKLNMVDSQNSQPTQNDQVDLFITKKMNALAINPVDRTAAGTIIDKAKQANIPVVFFNKEPLPEDMKKWDKVYYVGAKAEQSGILQGQIMADYWKAHPEADKNHDGVMQYVMLMGEPGNQDAILRTQYSIQTVKDAGIKVQELAKDYANCDRVTAHDKMAAWLSSFGDKIEAVFANNDDMALGAIEALKSAGYFTGNKYIPVVGVDATAPGIQAIKDGTLLGTVLNDAKNQAKATFNIAYELAQGITPTKDNIGYDITDGKYVWIPYKKITKDNISDAEQGGSHHHHHH
modifications: ttGGBP182C.2.6 (affinity-tuning mutant, 182C background (Table 6) with signal peptide replaced with M and GGSHHHHHH at C-terminus)
Turning to B1, the “S, selectivity = trueKd(galactose)/trueKd(glucose)” value in series [1] amounted to 2.9. The Kd in series [1] turned out to be 52.6 mM; in series [3] (setting [4]), 19.2 mM; in series [3] (setting [5]) it was 17.9 mM. Besides, the apoTm in series [2] is 347 K.

B2: ttGGBP182C.5: affinity-tuning mutant, 182C background, SEQ ID NO: 99 (protein)
chain: MKQLNIGVAIYKFDDTFMTGVRNAMTAEAQGKAKLNMVDSQNSQPTQNDQVDLFITKKMNALAINPVDPTAAGTIIDKAKQANIPVVFFNREPLPEDMKKWDKVYYVGAKAEQSGILQGQIMADYWKAHPEADKNHDGVMQYVMLMGQPGHPDAILRTQYSIQTVKDAGIKVQELAKDYANCDRVTAHDKMAAWLSSFGDKIEAVFANNDDMALGAIEALKSAGYFTGNKYIPVVGVDATAPGIQAIKDGTLLGTVLNDAKNQAKATFNIAYELAQGITPTKDNIGYDITDGKYVWIPYKKITKDNISDAEQGGSHHHHHH
modifications: ttGGBP182C.5 (affinity-tuning mutant, 182C background (Table 6) with signal peptide replaced with M and GGSHHHHHH at C-terminus)
Take B2: the “S, selectivity = trueKd(galactose)/trueKd(glucose)” value in series [1] came to 0.8. Further, the Kd in series [1] is 7.4 mM; in series [3] (setting [4]), 7.5 mM; in series [3] (setting [5]) it was 8.8 mM. The molecule also gave an apoTm in series [2] of 349 K.

B3: ttGGBP182C.9: affinity-tuning mutant, 182C background, SEQ ID NO: 103 (protein)
chain: MKQLNIGVAIYKFDNTFMTGVRNAMTAEAQGKAKLNMVDSQNSQPTQNDQVDLFITKKMNALAINPVDRTAAGTIIDKAKQANIPVVFFNREPLPEDMKKWDKVYYVGAKAEQSGILQGQIMADYWKAHPEADKNHDGVMQYVMLMGQPGHQDAILRTQYSIQTVKDAGIKVQELAKDYANCDRVTAHDKMAAWLSSFGDKIEAVFANNDDMALGAIEALKSAGYFTGNKYIPVVGVDATAPGIQAIKDGTLLGTVLNDAKNQAKATFNIAYELAQGITPTKDNIGYDITDGKYVWIPYKKITKDNISDAEQGGSHHHHHH
modifications: ttGGBP182C.9 (affinity-tuning mutant, 182C background (Table 6) with signal peptide replaced with M and GGSHHHHHH at C-terminus)
On to B3, for which the “S, selectivity = trueKd(galactose)/trueKd(glucose)” value in series [1] is 3.7. The same molecule returned an apoTm in series [2] of 343 K. Also, the Kd in series [3] (setting [4]) worked out at 75.1 mM; in series [3] (setting [5]) it was 76.4 mM.

B4: ttGGBP182C.8: affinity-tuning mutant, 182C background, SEQ ID NO: 102 (protein)
chain: MKQLNIGVAIYKFDDTFMTGVRNAMTAEAQGKAKLNMVDSQNSQPTQNDQVDLFITKKMNALAINPVDRTAAGTIIDKAKQANIPVVFFNKEPLPEDMKKWDKVYYVGAKAEQSGILQGQIMADYWKAHPEADKNHDGVMQYVMLMGKPGHQDAILRTQYSIQTVKDAGIKVQELAKDYANCDRVTAHDKMAAWLSSFGDKIEAVFANNDDMALGAIEALKSAGYFTGNKYIPVVGVDATAPGIQAIKDGTLLGTVLNDAKNQAKATFNIAYELAQGITPTKDNIGYDITDGKYVWIPYKKITKDNISDAEQGGSHHHHHH
modifications: ttGGBP182C.8 (affinity-tuning mutant, 182C background (Table 6) with signal peptide replaced with M and GGSHHHHHH at C-terminus)
For B4, in series [1], the “S, selectivity = trueKd(galactose)/trueKd(glucose)” value is on record as 5.8. For the same molecule, the apoTm in series [2] is recorded as 346 K. The Kd was found to be 28.7 mM in series [3] (setting [4]) and 44.2 mM in series [3] (setting [5]).

B5: ttGGBP182C.4: affinity-tuning mutant, 182C background, SEQ ID NO: 98 (protein)
chain: MKQLNIGVAIYKFDDTFMTGVRNAMTAEAQGKAKLNMVDSQNSQPTQNDQVDLFITKKMNALAINPVDRTAAGTIIDKAKQANIPVVFFNREPLPEDMKKWDKVYYVGAKAEQSGILQGQIMADYWKAHPEADKNHDGVMQYVMLMGEPGHQDAILRTQYSIQTVKDAGIKVQELAKDYANCDRVTAHDKMAAWLSSFGDKIEAVFANNDDMALGAIEALKSAGYFTGNKYIPVVGVDATAPGIQAIKDGTLLGTVLNDAKNQAKATFNIAYELAQGITPTKDNIGYDITDGKYVWIPYKKITKDNISDAEQGGSHHHHHH
modifications: ttGGBP182C.4 (affinity-tuning mutant, 182C background (Table 6) with signal peptide replaced with M and GGSHHHHHH at C-terminus)
Take B5: the “S, selectivity = trueKd(galactose)/trueKd(glucose)” value in series [1] is reported as 8.1. In addition, the Kd came to 6.5 mM in series [1], 0.6 mM in series [3] (setting [4]) and 0.8 mM in series [3] (setting [5]). The molecule also registered an apoTm in series [2] of 347 K.

B6: ttGGBP182C.3: affinity-tuning mutant, 182C background, SEQ ID NO: 97 (protein)
chain: MKQLNIGVAIYKFDDTFMTGVRNAMTAEAQGKAKLNMVDSQNSQPTQNDQVDLFITKKMNALAINPVDRTAAGTIIDKAKQANIPVVFFNKEPLPEDMKKWDKVYYVGAKAEQSGILQGQIMADYWKAHPEADKNHDGVMQYVMLMGQPGHQDAILRTQYSIQTVKDAGIKVQELAKDYANCDRVTAHDKMAAWLSSFGDKIEAVFANNDDMALGAIEALKSAGYFTGNKYIPVVGVDATAPGIQAIKDGTLLGTVLNDAKNQAKATFNIAYELAQGITPTKDNIGYDITDGKYVWIPYKKITKDNISDAEQGGSHHHHHH
modifications: ttGGBP182C.3 (affinity-tuning mutant, 182C background (Table 6) with signal peptide replaced with M and GGSHHHHHH at C-terminus)
On to B6, for which the values for the Kd in series [1] and in series [3] (setting [5]) were 3.1 mM and 0.9 mM, respectively. This molecule also yielded an apoTm in series [2] of 346 K.

B7: ttGGBP182C.6: affinity-tuning mutant, 182C background, SEQ ID NO: 100 (protein)
chain: MKQLNIGVAIYKFDDNFMTGVRNAMTAEAQGKAKLNMVDSQNSQPTQNDQVDLFITKKMNALAINPVDRTAAGTIIDKAKQANIPVVFFNREPLPEDMKKWDKVYYVGAKAEQSGILQGQIMADYWKAHPEADKNHDGVMQYVMLMGQPGHQDAILRTQYSIQTVKDAGIKVQELAKDYANCDRVTAHDKMAAWLSSFGDKIEAVFANNDAMALGAIEALKSAGYFTGNKYIPVVGVDATAPGIQAIKDGTLLGTVLNDAKNQAKATFNIAYELAQGITPTKDNIGYDITDGKYVWIPYKKITKDNISDAEQGGSHHHHHH
modifications: ttGGBP182C.6 (affinity-tuning mutant, 182C background (Table 6) with signal peptide replaced with M and GGSHHHHHH at C-terminus)
As for B7, the “S, selectivity = trueKd(galactose)/trueKd(glucose)” value in series [1] came out at 2.9. In addition, the Kd is 81 mM in series [1], 21.6 mM in series [3] (setting [4]) and 27.6 mM in series [3] (setting [5]). Besides, in series [2], the apoTm is recorded as 345 K.

The record behind these values is patent US11156615B2 (priority 2015, dated 2021).
